The assay addresses T1, LexA BD-HRt (mouse, UniProt P0A7C2 1-202; Q61645 490-1182).
T1 construct: domain: Lex A DNA BD;range 490-1182; also called BD-HRt(mouse); Lex A DNA BD-HRt
T1 sequence (looked up): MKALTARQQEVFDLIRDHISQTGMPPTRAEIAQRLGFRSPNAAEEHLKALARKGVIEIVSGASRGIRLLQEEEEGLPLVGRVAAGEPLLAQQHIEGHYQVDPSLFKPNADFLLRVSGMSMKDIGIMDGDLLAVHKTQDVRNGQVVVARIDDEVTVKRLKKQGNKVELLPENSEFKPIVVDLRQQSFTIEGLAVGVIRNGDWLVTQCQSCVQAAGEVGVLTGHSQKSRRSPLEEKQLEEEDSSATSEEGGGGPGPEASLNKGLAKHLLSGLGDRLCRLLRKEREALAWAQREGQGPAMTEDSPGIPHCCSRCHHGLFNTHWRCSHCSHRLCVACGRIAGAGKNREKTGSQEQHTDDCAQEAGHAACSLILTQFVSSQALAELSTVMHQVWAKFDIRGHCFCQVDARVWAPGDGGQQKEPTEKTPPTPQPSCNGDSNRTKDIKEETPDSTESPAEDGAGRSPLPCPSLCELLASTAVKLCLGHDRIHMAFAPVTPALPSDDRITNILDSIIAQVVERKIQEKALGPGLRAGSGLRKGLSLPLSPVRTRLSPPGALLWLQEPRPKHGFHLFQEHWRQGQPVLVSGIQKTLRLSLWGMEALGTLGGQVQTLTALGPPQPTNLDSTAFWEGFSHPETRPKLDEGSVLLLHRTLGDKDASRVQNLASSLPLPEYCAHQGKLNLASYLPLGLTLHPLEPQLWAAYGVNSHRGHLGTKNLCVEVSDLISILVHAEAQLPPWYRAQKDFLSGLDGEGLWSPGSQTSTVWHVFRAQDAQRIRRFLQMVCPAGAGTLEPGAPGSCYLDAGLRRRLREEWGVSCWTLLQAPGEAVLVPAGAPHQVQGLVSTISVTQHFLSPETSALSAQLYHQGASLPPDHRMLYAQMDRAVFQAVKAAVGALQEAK
Put plainly: yeast two-hybrid library screen; number of positive clones with this identity.

Excerpt: Clontech Human Keratinocyte GAL4 cDNA library (complexity 2.5×10⁶) in pACT2 vector was used used to screen for HRt interacting proteins. A Leu⁻, Trp⁻ yeast strain with HIS3 and LACZ reporters for yeasts two hybrid interaction (strain L41) was first transformed with LexA BD-HRt palsmid) for Trp⁺ phenotype. The resulting L41/LexA BD-HR transformant was screened to ensure expression of LexA BD-HRt protein and also for lack of auto activation of the reporter genes HIS3 and LACZ. This strain was transformed with Keratinocyte AD-cDNA library and plated on Trp⁻Leu⁻His⁻ plate to select for clones with positive interaction. Colonies that appeared on selsctive plates were subsequently tested for LACZ expression on X-GAL plates. […] AD-plasmid was rescued from the 90 clones and retested for HRt bait dependance. […] The positive clones are expected to contain an AD-IP (interacting partner) that interacts with BD-HRt.

B1: Homo Sapiens Protein Inhibitor of Activated STAT-3 (PIAS3) (other, UniProt Q9Y6X2 1-628, looked up, not shown: large carriers)
chain: MAELGELKHMVMSFRVSELQVLLGFAGRNKSGRKHELLAKALHLLKSSCAPSVQMKIKELYRRRFPRKTLGPSDLSLLSLPPGTSPVGSPGPLAPIPPTLLAPGTLLGPKREVDMHPPLPQPVHPDVTMKPLPFYEVYGELIRPTTLASTSSQRFEEAHFTFALTPQQVQQILTSREVLPGAKCDYTIQVQLRFCLCETSCPQEDYFPPNLFVKVNGKLCPLPGYLPPTKNGAEPKRPSRPINITPLARLSATVPNTIVVNWSSEFGRNYSLSVYLVRQLTAGTLLQKLRAKGIRNPDHSRALIKEKLTADPDSEVATTSLRVSLMCPLGKMRLTVPCRALTCAHLQSFDAALYLQMNEKKPTWTCPVCDKKAPYESLIIDGLFMEILSSCSDCDEIQFMEDGSWCPMKPKKEASEVCPPPGYGLDGLQYSPVQGGDPSENKKKVEVIDLTIESSSDEEDLPPTKKHCSVTSAAIPALPGSKGVLTSGHQPSSVLRSPAMGTLGGDFLSSLPLHEYPPAFPLGADIQGLDLFSFLQTESQHYGPSVITSLDEQDALGHFFQYRGTPSHFLGPLAPTLGSSHCSATPAPPPGRVSSIVAPGGALREGHGGPLPSGPSLTGCRSDIISLD
notes: Prey clone; extent of the clone unknown; also called AD-IP; BC030556
For B1, the Hits came to 1.

B2: Homo Sapiens Retinoic Acid Receptor Gamma-1 (receptor, UniProt P13631 1-454, looked up, not shown: large carriers)
chain: MATNKERLFAAGALGPGSGYPGAGFPFAFPGALRGSPPFEMLSPSFRGLGQPDLPKEMASLSVETQSTSSEEMVPSSPSPPPPPRVYKPCFVCNDKSSGYHYGVSSCEGCKGFFRRSIQKNMVYTCHRDKNCIINKVTRNRCQYCRLQKCFEVGMSKEAVRNDRNKKKKEVKEEGSPDSYELSPQLEELITKVSKAHQETFPSLCQLGKYTTNSSADHRVQLDLGLWDKFSELATKCIIKIVEFAKRLPGFTGLSIADQITLLKAACLDILMLRICTRYTPEQDTMTFSDGLTLNRTQMHNAGFGPLTDLVFAFAGQLLPLEMDDTETGLLSAICLICGDRMDLEEPEKVDKLQEPLLEALRLYARRRRPSQPYMFPRMLMKITDLRGISTKGAERAITLKMEIPGPMPPLIREMLENPEMFEDDSSQPGPHPNASSEDEVPGGQGKGGLKSPA
notes: Prey clone; extent of the clone unknown; also called Human Retinoic Acid Receptor Gamma 1; AD-IP
In the case of B2, the Hits is 1.

B3: Homo Sapiens Annexin A1 (Lipocortin 1 or P35) (other, UniProt P04083 1-346, looked up, not shown: large carriers)
chain: MAMVSEFLKQAWFIENEEQEYVQTVKSSKGGPGSAVSPYPTFNPSSDVAALHKAIMVKGVDEATIIDILTKRNNAQRQQIKAAYLQETGKPLDETLKKALTGHLEEVVLALLKTPAQFDADELRAAMKGLGTDEDTLIEILASRTNKEIRDINRVYREELKRDLAKDITSDTSGDFRNALLSLAKGDRSEDFGVNEDLADSDARALYEAGERRKGTDVNVFNTILTTRSYPQLRRVFQKYTKYSKHDMNKVLDLELKGDIEKCLTAIVKCATSKPAFFAEKLHQAMKGVGTRHKALIRIMVSRSEIDMNDIKAFYQKMYGISLCQAILDETKGDYEKILVALCGGN
notes: Prey clone; extent of the clone unknown; also called AD-IP; BC001275
With B3, the Hits amounted to 1.

B4: Homo Sapiens Nucleoporin 160 Kda (other, UniProt Q12769 1-1436, looked up, not shown: large carriers)
chain: MLHLSAAPPAPPPEVTATARPCLCSVGRRGDGGKMAAAGALERSFVELSGAERERPRHFREFTVCSIGTANAVAGAVKYSESAGGFYYVESGKLFSVTRNRFIHWKTSGDTLELMEESLDINLLNNAIRLKFQNCSVLPGGVYVSETQNRVIILMLTNQTVHRLLLPHPSRMYRSELVVDSQMQSIFTDIGKVDFTDPCNYQLIPAVPGISPNSTASTAWLSSDGEALFALPCASGGIFVLKLPPYDIPGMVSVVELKQSSVMQRLLTGWMPTAIRGDQSPSDRPLSLAVHCVEHDAFIFALCQDHKLRMWSYKEQMCLMVADMLEYVPVKKDLRLTAGTGHKLRLAYSPTMGLYLGIYMHAPKRGQFCIFQLVSTESNRYSLDHISSLFTSQETLIDFALTSTDIWALWHDAENQTVVKYINFEHNVAGQWNPVFMQPLPEEEIVIRDDQDPREMYLQSLFTPGQFTNEALCKALQIFCRGTERNLDLSWSELKKEVTLAVENELQGSVTEYEFSQEEFRNLQQEFWCKFYACCLQYQEALSHPLALHLNPHTNMVCLLKKGYLSFLIPSSLVDHLYLLPYENLLTEDETTISDDVDIARDVICLIKCLRLIEESVTVDMSVIMEMSCYNLQSPEKAAEQILEDMITIDVENVMEDICSKLQEIRNPIHAIGLLIREMDYETEVEMEKGFNPAQPLNIRMNLTQLYGSNTAGYIVCRGVHKIASTRFLICRDLLILQQLLMRLGDAVIWGTGQLFQAQQDLLHRTAPLLLSYYLIKWGSECLATDVPLDTLESNLQHLSVLELTDSGALMANRFVSSPQTIVELFFQEVARKHIISHLFSQPKAPLSQTGLNWPEMITAITSYLLQLLWPSNPGCLFLECLMGNCQYVQLQDYIQLLHPWCQVNVGSCRFMLGRCYLVTGEGQKALECFCQAASEVGKEEFLDRLIRSEDGEIVSTPRLQYYDKVLRLLDVIGLPELVIQLATSAITEAGDDWKSQATLRTCIFKHHLDLGHNSQAYEALTQIPDSSRQLDCLRQLVVVLCERSQLQDLVEFPYVNLHNEVVGIIESRARAVDLMTHNYYELLYAFHIYRHNYRKAGTVMFEYGMRLGREVRTLRGLEKQGNCYLAALNCLRLIRPEYAWIVQPVSGAVYDRPGASPKRNHDGECTAAPTNRQIEILELEDLEKECSLARIRLTLAQHDPSAVAVAGSSSAEEMVTLLVQAGLFDTAISLCQTFKLPLTPVFEGLAFKCIKLQFGGEAAQAEAWAWLAANQLSSVITTKESSATDEAWRLLSTYLERYKVQNNLYHHCVINKLLSHGVPLPNWLINSYKKVDAAELLRLYLNYDLLEEAVDLVSEYVDAVLGKGHQYFGIEFPLSATAPMVWLPYSSIDQLLQALGENSANSHNIALSQKILDKLEDYQQKVDKATRDLLYRRTL
notes: Prey clone; extent of the clone unknown; also called Homo Sapiens Nucleoporin 160 kD (NUP160); AD-IP
The molecule B4 had a Hits of 3.

B5: Homo Sapiens Inner Membrane Protein, Mitochondrial (Mitofilin) (other, UniProt Q16891 1-758, looked up, not shown: large carriers)
chain: MLRACQLSGVTAAAQSCLCGKFVLRPLRPCRRYSTSGSSGLTTGKIAGAGLLFVGGGIGGTILYAKWDSHFRESVEKTIPYSDKLFEMVLGPAAYNVPLPKKSIQSGPLKISSVSEVMKESKQPASQLQKQKGDTPASATAPTEAAQIISAAGDTLSVPAPAVQPEESLKTDHPEIGEGKPTPALSEEASSSSIRERPPEEVAARLAQQEKQEQVKIESLAKSLEDALRQTASVTLQAIAAQNAAVQAVNAHSNILKAAMDNSEIAGEKKSAQWRTVEGALKERRKAVDEAADALLKAKEELEKMKSVIENAKKKEVAGAKPHITAAEGKLHNMIVDLDNVVKKVQAAQSEAKVVSQYHELVVQARDDFKRELDSITPEVLPGWKGMSVSDLADKLSTDDLNSLIAHAHRRIDQLNRELAEQKATEKQHITLALEKQKLEEKRAFDSAVAKALEHHRSEIQAEQDRKIEEVRDAMENEMRTQLRRQAAAHTDHLRDVLRVQEQELKSEFEQNLSEKLSEQELQFRRLSQEQVDNFTLDINTAYARLRGIEQAVQSHAVAEEEARKAHQLWLSVEALKYSMKTSSAETPTIPLGSAVEAIKANCSDNEFTQALTAAIPPESLTRGVYSEETLRARFYAVQKLARRVAMIDETRNSLYQYFLSYLQSLLLFPPQQLKPPPELCPEDINTFKLLSYASYCIEHGDLELAAKFVNQLKGESRRVAQDWLKEARMTLETKQIVEILTAYASAVGIGTTQVQPE
notes: Prey clone; extent of the clone unknown; also called AD-IP; BC002412
B5: the Hits is 3.

B6: Homo Sapiens Thyroid Hormone Receptor Alpha (receptor, UniProt P10827-2 1-410, looked up, not shown: large carriers)
chain: MEQKPSKVECGSDPEENSARSPDGKRKRKNGQCSLKTSMSGYIPSYLDKDEQCVVCGDKATGYHYRCITCEGCKGFFRRTIQKNLHPTYSCKYDSCCVIDKITRNQCQLCRFKKCIAVGMAMDLVLDDSKRVAKRKLIEQNRERRRKEEMIRSLQQRPEPTPEEWDLIHIATEAHRSTNAQGSHWKQRRKFLPDDIGQSPIVSMPDGDKVDLEAFSEFTKIITPAITRVVDFAKKLPMFSELPCEDQIILLKGCCMEIMSLRAAVRYDPESDTLTLSGEMAVKREQLKNGGLGVVSDAIFELGKSLSAFNLDDTEVALLQAVLLMSTDRSGLLCVDKIEKSQEAYLLAFEHYVNHRKHNIPHFWPKLLMKVTDLRMIGACHASRFLHMKVECPTELFPPLFLEVFEDQEV
notes: Prey clone; extent of the clone unknown; also called AD-IP; BC000261
With B6, the Hits is 7.

B7: Homo Sapiens Keratin 5 (other, UniProt P13647 1-590, looked up, not shown: large carriers)
chain: MSRQSSVSFRSGGSRSFSTASAITPSVSRTSFTSVSRSGGGGGGGFGRVSLAGACGVGGYGSRSLYNLGGSKRISISTSGGSFRNRFGAGAGGGYGFGGGAGSGFGFGGGAGGGFGLGGGAGFGGGFGGPGFPVCPPGGIQEVTVNQSLLTPLNLQIDPSIQRVRTEEREQIKTLNNKFASFIDKVRFLEQQNKVLDTKWTLLQEQGTKTVRQNLEPLFEQYINNLRRQLDSIVGERGRLDSELRNMQDLVEDFKNKYEDEINKRTTAENEFVMLKKDVDAAYMNKVELEAKVDALMDEINFMKMFFDAELSQMQTHVSDTSVVLSMDNNRNLDLDSIIAEVKAQYEEIANRSRTEAESWYQTKYEELQQTAGRHGDDLRNTKHEISEMNRMIQRLRAEIDNVKKQCANLQNAIADAEQRGELALKDARNKLAELEEALQKAKQDMARLLREYQELMNTKLALDVEIATYRKLLEGEECRLSGEGVGPVNISVVTSSVSSGYGSGSGYGGGLGGGLGGGLGGGLAGGSSGSYYSSSSGGVGLGGGLSVGGSGFSASSGRGLGVGFGSGGGSSSSVKFVSTTSSSRKSFKS
notes: Prey clone of the human keratinocyte AD-cDNA library; whole protein named, extent of the clone unknown; also called AD-IP; BC024292
For B7, the Hits was found to be 1.

B8: Homo Sapiens Insulin-like Growth Factor Binding Domain Protein 6 (other, UniProt P24592 28-240, looked up, not shown: large carriers)
chain: RCPGCGQGVQAGCPGGCVEEEDGGSPAEGCAEAEGCLRREGQECGVYTPNCAPGLQCHPPKDDEAPLRALLLGRGRCLPARAPAVAEENPKESKPQAGTARPQDVNRRDQQRNPGTSTTPSQPNSAGVQDTEMGPCRRHLDSVLQQLQTEVYRGAQTLYVPNCDHRGFYRKRQCRSSQGQRRGPCWCVDRMGKSLPGSPDGNGSSSCPTGSSG
notes: Prey clone; extent of the clone unknown; also called AD-IP
Molecule B8 had a Hits of 1.
